Assays:
TRPV1 = assay: cell-based or functional assay
ARD of TRPV1 = target: T1, ARD of TRPV1 (Rattus norvegicus (Rat), UniProt O35433 101-364); assay: SPR steady state, ARD immobilised on CM5 chip, design as analyte, 25 C
T1 construct: Purified from E. coli and immobilised on a CM5 chip by amine coupling; also called TRPV1 ARD; ankyrin repeat-like domain
T1 sequence (O35433 other isoform, or with tags, fused parts or gaps limits assumed): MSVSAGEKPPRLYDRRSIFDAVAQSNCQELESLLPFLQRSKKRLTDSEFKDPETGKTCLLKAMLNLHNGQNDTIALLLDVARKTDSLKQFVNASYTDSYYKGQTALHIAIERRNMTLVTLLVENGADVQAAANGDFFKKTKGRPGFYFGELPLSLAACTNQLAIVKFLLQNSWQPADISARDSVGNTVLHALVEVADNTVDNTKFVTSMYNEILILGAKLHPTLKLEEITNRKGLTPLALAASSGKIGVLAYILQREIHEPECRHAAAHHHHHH
Procedure: The purified ARD was immobilized on the CM5 SPR sensor chip by an amine-coupling procedure. SPR experiments were conducted on the Biacore T3000 instrument (GE healthcare). The designed proteins were perfused as analytes. Steady-state SPR responses were measured and used to determine the KD values. In all experiments, the analysis was performed at 25° C., with an association time of 120 see at a flow rate of 20 μL/min.

B1: De1 (designed binder)
chain: NGYSSEDKLRIAKRHLLPKQIERNALKKGELFVSEFAILGIILFYTDEAGVRGLEREISKLCRKAVKQLLLDKSTTSSHASGFHLHDYLGVMR
notes: For SPR: expressed from pET-32a in E. coli BL21(DE3), purified on a Ni column and by HPLC; also called Del; designed protein De1
Q: With B1 as the binder, how does the “EC50 of capsaicin activation of TRPV1 co-expressed with De1 (whole-cell patch clamp)” value (TRPV1) read?
A: 50.9 nM

Q: And the Kd (ARD of TRPV1)?
A: 26.5 nM
